Results published in FireProtDB (doi:10.1016/s0301-4622(99)00119-2).

B1: Cytochrome b5, P00171 (parent)
chain: MAEESSKAVKYYTLEEIQKHNNSKSTWLILHYKVYDLTKFLEEHPGGEEVLREQAGGDATENFEDVGHSTDARELSKTFIIGELHPDDRSKITKPSESIITTIDSNPSWWTNWLIPAISALFVALIYHLYTSEN

Variants of: B1
Settings: Bos taurus, pH 7, Thermal, Absorbance, Sodium phosphate 100 mM, structure 1CYO, whole UniProt chain shown

Variant | ddG of mutation (higher = less stable) (66.7 °C) | ddG of mutation (higher = less stable) (77.6 °C)
V50E | 2.68 kcal/mol | 2.06 kcal/mol
V50Y | 1.53 kcal/mol | 1.55 kcal/mol
V50H |  | 1.39 kcal/mol
